Laboratory results: paper PMC5987543

Biological target: α-synuclein, P37840
Assay: SPR; Biacore X100; monomeric α-syn immobilised on a streptavidin-coated chip; S100A9 injected at increasing concentrations in a single cycle; HBS-P+ (10 mM HEPES, 150 mM NaCl, 0.001% P20), pH 7.4, 25 °C; steady-state fit Rc = C*Rmax/(Kd + C); apparent; three repeats
Settings: remark: other sources report otherwise

B1: S100A9, P06702 1-114 (natural protein)
chain: MTCKMSQLERNIETIINTFHQYSVKLGHPDTLNQGEFKELVRKDLQNFLKKENKNEKVIEHIMEDLDTNADKQLSFEEFIMLMARLTWASHEKMHEGDEGPGHHHKPGLGEGTP
  Kd: 5 µM
